Source: the DeepSol protein solubility set

Test: soluble on expression in E. coli; label from the status in PepcDB or PDB records

Sequence | soluble on expression in E. coli
MNKEEQYLLFALSAPMEILNQSCKPAHDSPKMYTGIKEFDLSSSWGINNRDDLIQTIYQMTDDGHANDLAGLYLTWQRSSPEEWKALIAGGSERGLIYTQFVAQTAMCCGEGGIKAWDYVRMGFLSRAGVLNNWLTEEESLWLQSRVYARAHHYYHSWMHYFSAYSLGRLYWQSSQCEDNASLREALTLYKYDSAGSRMFEELAAGSDRFYATLPWQPLTVQPECPVTLKDVSDL | not soluble
MKAIIVKPPNAGVQVKDVDEKKLDSYGKIKIRTIYNGICGADREIVNGKLTLSTLPKGKDFLVLGHEAIGVVEESYHGFSQGDLVMPVNRRGCGICRNCLVGRPDFCETGEFGEAGIHKMDGFMREWWYDDPKYLVKIPKSIEDIGILAQPLADIEKSIEEILEVQKRVPVWTCDDGTLNCRKVLVVGTGPIGVLFTLLFRTYGLEVWMANRREPTEVEQTVIEETKTNYYNSSNGYDKLKDSVGKFDVIIDATGADVNILGNVIPLLGRNGVLGLFGFSTSGSVPLDYKTLQEIVHTNKTIIGLVNGQKPHFQQAVVHLASWKTLYPKAAKMLITKTVSINDEKELLKVLREKEHGEIKIRILWE | soluble
MGSDKIHHHHHHMKLDINICNNIKSIRTRLGMSQQDLANIAGVTRQTISGVESGQYAPSVAITLRLAKALGCQVENLFWLEDDLPEIEAVLAKPVPTGQQLRVSLAKVGGQWIAYPLVGKEAFRMEMIPADGRAESQTHTNKVQVRLLDDLDKLQNTVVIAGCTPVISFLARATERWHPQLRVHYHFANSMAALRSLNRGEVHIAGMHLYDPQTGEHNIPFAREALDGRSAVLITLGIWEEGLVVAPGNPMEIKSLSDLVELEATIINREPGSGSRMLLERKLKEEKVSANTIKGYEHIVHSHQDVALSIAAGIADAGVSTASVAAAFGLGFIPLHQARYDLVILKEYLEEAPVQQFLSILGHRLVQSQLEVLGGYDISDIGEVVATI | not soluble
MGSDKIHHHHHHAQNFSDYFTNKTLRIDYLFTGNADKQSICLDELSELPVWAGRRHHLSELPLEGNGQIVMRDVASGKVIYTTSFSSLFQEWLETDEAKEVTKGFENTYLLPYPIKPAEVEITLRNNKREVSANLKHVVKPDDILIHKKGLTHITPHKYLLKSGNEEQCIDVAILAEGYTTSEMETFYKDAAIACEALFSHEPFQSMKNRFNIVAVASPSADSGVSAPKQGAWKHTAFGSHFDTFYSDRYLTTSRVKAINDALAGIPYEHIIILANTEQYGGGGIYNAFTLTTAHHPNFRPVVVHEFGHSFGGLADEYFYDEDVMNGLYPLNIEPWEQNITTRINFASKWEDMLTKTTPVPTPVADKAKYPIGVYEGGGYSAKGIYRPAFDCRMRTNEYPTFCPVCQRAIQRIIEFYTGK | not soluble
SLLKKIKKALFQPKKFFQDSMWLTTSPFYLTPPRNNLFVISNLGQLNQVQSLIKIQKLTNNLLVILYTSKNLKMPKLVHQSANKNLFESIYLFELPRSPNNITPKKLLYIYRSYKKILNIIQPAHLYMLSFTGHYSYLISIAKKKNITTHLIDEGTGTYAPLLESFSYHPTKLERYLIGNNLNIKGYIDHFDILHVPFPEYAKKIFNAKKYNRFFAHAGGISINNNIANLQKKYQISKNDYIFVSQRYPISDDLYYKSIVEILNSISLQIKGKIFIKLHPKEMGNNYVMSLFLNMVEINPRLVVINEPPFLIEPLIYLTNPKGIIGLASSSLIYTPLLSPSTQCLSIGELIINLIQKYSMVENTEMIQEHLEIIKKFNFINILNDLNGVISNPLFKTEETFETLLKSAEFAYKSKNYFQAIFYWQLASKNNITLLGHKALWYYNALYNVKQIYKMEYSDIFYIDNISVDFHSKDKLTWEKIKHYYYSADNRIGRDR | not soluble
MSLESPQTQSEISIHQLVVGKPANDGNIPAQCELLRCSLQEGMDILLWRGHFARPETLQLHDDLGRINFSCILEGTSRFAIQGLRRHTDWELARNRHYITHTPDCRGSASYCGRFESITLSFSPETLALWVPDISAVIKNKIDSHCCCQQQRCNAETHLTAQALRHALMRMHGGFSHEQKPSTLWLQGQSLVMLSLVLDEHREDASCLSCHFNPMERQKLLRAKDLLLADLTQAPGVAELARESGLSVLKIKRGFRVLFNNSVYGLFQAERMQEARRRLANGNTSVMTVAADLGYANASHFSAAFQKQFGVTPSTFKRGEGHHHHHH | not soluble
MNVVQVEYLNVAEIKALLNSTISKLNPRYTSNYMIVTAILTGARLSEIAGLTWNDINFNFNTININKSYDYFAKSFKPTKNKSSNRIIKINNTLCDVLKELRTNNTDLVFKNKRGLIPTSNAVNKALRARLEELNINRRNFHFHSLRHSHVAFLLSQGIDIYPIAQRLGHSDITTTTRTYAYLIEEYKDKNDAIIIAGLDKLEHHHHHH | not soluble
MPEFVQYVGGHFEEVGKEFMQYFIEIGNLKSNETVLDVGCGIGRMAVPLMNYLSDDGTYYGFDLFNKGITWCKNNISTRRNNFHFEHVDIYNQFYNPDGKEDASQYKFPYEDESFDFIFLTSVFTHLLPKELEHYVREIARVLKKDGRCFITFFLINPESSYYLNAGLSPLGFYHQIDNCYVLNKDIPNFAVAYPEEDIRTLLNKYGLEMQTPPHYGSWCGRTEHTSYQDIILAQKLEHHHHHH | soluble
MNIQCKRVYDPAEQSDGYRILVDRLWPRGIKKTDLALDEWDKEITPSTELRKAFHGEVVDYATFREQYLAELAQHEQEGKRLADIAKKQPLTLLYSAKNTTQNHALVLADWLRSL | soluble
MSLRKVFEESKIGNIKLKNRILRSATHESMADSEGKPTEDLIKKYMELAQGEVGAIITGYTGVMQNGKSPAKNMLMLDKDENITSFKNMVNEIHKYDVPIILQIAHCGRQTSEKVTGKPTVAPSPIRDKIYRGSVPHELTDVAINEIIEAFVNAIERAIKAGFDGVELHLAHGYLLSSFLSPHMNKRKDKWGGSTENRFRIVSEIMKRARQKFKNYPILAKINGYEASKDGIKLEEAIKISKALENSGINAIEVSCGIAEEGFVTIRGKVPFDMILKCDPTMKRIPEFLKPIVKHVGKLIVKSPEPHFLYNLNNAREIKNKVTIPVIVVGGIRKFSDIEDIIAKDCDFVSMSRPFIIQPSIVKTFKEGKEKESRCINCNYCLIGVETNELKCYYGKEGHHHHHH | soluble
MGSDKIHHHHHHMEMFAQFSVEGQRMYGMLHTPDGSATGQQAPPQGWPSVVIVHGFTGDKVSSHRLLVLLARRLTAAGIAALRFDCRGSGESQGDFSEMTVGREVQDVEAAFDYVRHQPGLDPERVMLLGYSMGGLVSALAAEKVRPHRFALWSPALPELWLRHLRGGLLPPVISDYGGWPLGRAFLQEVVQTRPLEAAARWGGVAHVFHGDRDQTCPVEWGVRTPKPCAATPPRFPARGTRMTRSNR | not soluble
MGHHHHHHSHMWKVVNLPTDLFNSVMNVGRFTEEIEWLKFLALACSALGVTITKTLKIVCEVLSCDHNGGLPRIPFSTFQFLYTYIAEVDGEICASHVSRMLNYIEQEVIGPDGLITVNDFTQNPRVWLE | not soluble
MTVSNNGMAMPSVPPKIDCSEAIQDSPKFRATVAQHAMYFNRLENRLNEMLRHITAMIDFSKNYTNTFYKLTVSVNQLCDESFSGNPLASTTFQGLSEAYAHTVNLFRTYFDHSNVVTFTKLSNFIKIELTKVAESRAHFENMSQSMDDALVKNASISRQKPADATEGRNALTAVGTCFAHTTLDYVANINIAHAHKDHMILDALWTLVRESSAFFSKGHATFDEWTAADNGAIADTIQTFAAKSKLIERKMQDVHSLVPKEMFQHPSGMPIEPDVMMEGYLYKRSSNAFKTWNRRWFQIKDKQLLYSHRSTDLEPATIMEENLRICLVRPAPSNIDRIGCFELVTPTRIHLLQADSESLCQDWMRALQRTILALHEGDSVDVASTSPRNKTTSMSSGVTLTSANAISPLSNAMDVTKGRSVSDPASTYTSANTSSISTAAGFSSSTTAFEQVRRVPGNEVCADCGSPAPKWVSINLGVVLCIECSGAHRSLGVQTSKVRSLCMDSIDNELRDVLLALGNRQVNEIFLAHLPPADSIVPPQINEKSARPAREAWIKAKYVERRFAVAEDTRARSSATNRQEHLKHKTSIGGNSSSNGVNRSSSYADVQDAESGGLLDADPWSADLSVPVPTASKRLSACGSDTNLDAIGSSSIDTKTVEWDSVKEACECGDLLALMTAYAQGFDLNALHNGTTALHIATRNGQTAAVEFLLLNGAKINMLDEKLNTPLHLAAKEGHTLPVCQLLKRGADSNLANVDSKTPLDIAMECTHADIVTLFRVTIMRNDFNADFNNPMDETVEAVISDIARRAATEKEQKKTESLKSTSDI | not soluble
AQQGVFTLPARINFGVTVLVNSAATQHVEIFVDNEPRAAFSGVGTGDNNLGTKVINSGSGNVRVQITANGRQSDLVSSQLVLANKLNLAVVGSEDGTDMDYNDSIVILNWPLG | soluble
